Data on two substances can be found in US20100069304A1, “PROTECTIVE EFFECTS OF INHIBITING THE INTERACTION OF CALMODULIN AND MUTANT HUNTINGTIN PROTEIN” (priority 2008, published 2010).

The target of the experiment is htt-N63-148Q (63 amino acid N-terminal huntingtin fragment containing 148 polyglutamine repeats) (UniProt P42858). As to the kind of experiment: cell-based or functional assay.
Sequence of htt-N63-148Q (63 amino acid N-terminal huntingtin fragment containing 148 polyglutamine repeats) (P42858 other isoform, or with tags, fused parts or gaps limits assumed): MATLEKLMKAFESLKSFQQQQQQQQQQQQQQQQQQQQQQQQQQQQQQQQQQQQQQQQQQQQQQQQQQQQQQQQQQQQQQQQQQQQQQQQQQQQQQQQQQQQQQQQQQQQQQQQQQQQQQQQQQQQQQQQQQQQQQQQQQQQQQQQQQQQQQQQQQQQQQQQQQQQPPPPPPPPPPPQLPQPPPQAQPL

As for “CaM-C-term (C-terminal CaM construct, last 72 amino acids of calmodulin) (from UniProt P0DP23 78-149)”, the TG-catalyzed modifications of huntingtin (second experiment, HEK-293T cells) (fold decrease) was found to be 2; the TG-modified huntingtin (81D4 immunoprecipitation, immunoblot, HEK-293T cells) (fold decrease) amounted to 2; the cytotoxicity (LDH assay, HEK-293T cells) is 40 % decrease; the cytotoxicity (LDH assay, second experiment, HEK-293T cells) came out at 40 % decrease.
For the substance “CaM-center (center region CaM construct, 77 amino acids in the center of calmodulin) (from UniProt P0DP23 37-113)”, the TG-catalyzed modifications of huntingtin (second experiment, HEK-293T cells) (fold decrease) is 2; the TG-modified huntingtin (81D4 immunoprecipitation, immunoblot, HEK-293T cells) (fold decrease) worked out at 2; the carbachol-stimulated intracellular Ca2+ release (Fura-2, HEK-293T cells) worked out at 10 % decrease; the cytotoxicity (LDH assay, HEK-293T cells) came out at 40 % decrease. Further, the cytotoxicity (LDH assay, second experiment, HEK-293T cells) is 50 % decrease.
